Experimental data published in PMC12409433.

Legend:
[1] = target: Klebsiella pneumoniae N-acetylglucosamine-6-phosphate deacetylase (NagA) (Klebsiella pneumoniae); test: SEC; Superdex 200 Increase 10/300 GL, 20 mM Tris-HCl pH 8.0, 150 mM NaCl; apparent mass by calibration with molecular weight standards
[2] = target: Klebsiella pneumoniae N-acetylglucosamine-6-phosphate deacetylase (NagA) (Klebsiella pneumoniae); test: SEC-MALS; Superdex 200 Increase 10/300 GL, 0.5 ml/min, 20°C, DAWN-Treos detector; BSA for calibration

Substance: Klebsiella pneumoniae N-acetylglucosamine-6-phosphate deacetylase (NagA) (enzyme)
- stoichiometry N [1]: 4
- stoichiometry N [2]: 4
